Experimental data published in the DeepSol protein solubility set.

Assay: soluble on expression in E. coli; label from the status in PepcDB or PDB records

| Sequence | soluble on expression in E. coli |
| --- | --- |
| MSRIMIQGTASSVGKSILVAALCRIFKQDGFSVCPYKSQNMSLNSYITLDGKEMGRAQVLQAYAAGLEPEVYMNPILLKPTTDKSCQVIVKGEVYGVSSAKNYYNMKKEFAPMLKEDFEELEDKFDIVVIEGAGSPAEINLRENDIVNMGLAELVDAPVVLVGDIDKGGVFASLFGTVMLLEENERKRIKGTIINKFRGDVEILKPGLSMLEERINIPCFGVVPYFN | not soluble |
| MFDLAERLSSNKSNESKLSHKLKTMLFYQTEECRSLVNESFRFDGKDEPKCVKNRDEEFRQIDLLNPPEVVIIELNASQDVVQDAQRLAHLLPSQVSVVIVGSEDAISTIRLLKEMGFYYLFWPVSKQECSDFMKHVLDNHEQHRGLMANRKSKRVAMVGVKGGVGTSLISSEVSRMLSFDKGVSTLLVDHNYHGGNLDIFMGLKQHQKRIVQKGTLISNIDGTYALGLIRKITPMLSMLAIDSDELNAQELKEYTLAVQEQALKNSSVMIEDHAHLIRNEDDIIKLLQQVDVLVLVFDATVSSLRDYNRLNQLVKKNNLDNQTRVISVLNSSRPSNSGSVSAEEIEKYSGQRATISIPYDDKAPQYVLEGLQIVKTKSAMALPLMNLVALILGEEPKQESRSFLSFFKKKG | not soluble |
| MAKKVFIGATGQNCGKTTMSVSLMHLARQKYQRVGFIKPIGPKIEMYNGLTVDMDAILMARTFGLEEDLALMNPVPLPKNFTRDYLSGKFDCHTLKKKIVEAFEILDQSYDFLIIEGAGHCGVGSVIGLSNACVAHMLGAPVIVVTDSGIGSAIDAVHLNLALYEKEEADVRMVIVNKLRSDKRDSILGFLRRGFPGRSLQVTGGFNYSPVLANPTLSHIGKLLNLPVHGDADGHSRIIHHIHLGAASSQRVVDALEDATLLVLTSSRDELIVTLSSLYHIPSYRDKIAGLVIAGHMPVSEITQQILDDSMIPYIRVHDSTARVFTTLMEDVSKITAEDQEKLNWIRANAENEIDFEAIDALLLEHHHHHH | not soluble |
| MVKQLNSVEAFREFIHQYPLAVVHVMRDQCSVCHAVLPQIEDLMQSYPNVPLAVINQSQVEAIAGELNIFTVPVDLIFMNGKEMHRQGRFIDMQRFEHHLKQMNDSVNNDVDEHEYRK | soluble |
| MSLSILVTGATGTIGSLVTQGLASAGADVKAMVRQPGKRDFPAGVTEVVADLTDVSSMRVALSSVRTLFLLNAVTPDEVTQALIALNLAQEAGIERIVYLSVIHADTFTNVPHFTGKYTVERMIESLDIPATILRPAYFMQNDLMVQQTIQSYSVYPMPIGSAGVSMIDARDIADVAVAELLRRDEASSALDLVTLELVGPQALTGASVAQTWSSALDREIAYGGDDVAAFEGQLASYGPGWLAYDMRLMMAGIQKFGMQAAEGAVERLEAIIGHPLRSYEGFVREATAGEGHHHHHH | soluble |
| MGSDKIHHHHHHMNGQLLRQIANYQILYSACCKDLGLLRGKIGISLFFFHYAHFCGDSLYSDYANELIGDVYDDIRIDTPWGIRNGLLGIGWGLEYFMQKGFVECGSNDILTELDNKIMERDLRRVKDYSFDTGIEGLAWYVLIRLLSSERYLQKPFDKMYLDDLRGVCENVPNKVCHPGISLLLDYLVGKQIDDWYLVVLGKITSQRTGGEKKEALLWVEGLKYLLR | not soluble |
| SGLRKMAQPSGLVEPCIVRVSYGNNVLNGLWLGDEVICPRHVIASDTTRVINYENEMSSVRLHNFSVSKNNVFLGVVSARYKGVNLVLKVNQVNPNTPEHKFKSIKAGESFNILACYEGCPGSVYGVNMRSQGTIKGSFIAGTCGSVGYVLENGILYFVYMHHLELGNGSHVGSNFEGEMYGGYEDQPSMQLEGTNVMSSDNVVAFLYAALINGERWFVTNTSMSLESYNTWAKTNSFTELSSTDAFSMLAAKTGQSVEKLLDSIVRLNKGFGGRTILSYGSLCDEFTPTEVIRQMYGVNLQ | soluble |
| MRTRSGSAEFSGPLRSVAILAQEKLGDCVLLTPLVRNLRQAFPDLEIHLITFSRASANFFMNDPQVTAVHLVKKQPRRYFREVLSRKFDLLFNTKDHPSTWFLLQSALIRARFKVGHNNPFHEGLYDRLLDTEFHAHMAVKNCALLPLLGVTADTEACRPSLEHHHHHH | soluble |
| FLQNAVILGATENGLRLAEYLLEHQDIRSGVIGFIDDRIGRMPKTVANLPLLGNTSDLERLIREEKVTQVLVALPWTAENRMDYIIRELRRLPVNVLLVPDMIAFRHT | not soluble |
| MEVKLWNDKREREMYENFAELFAIIKATEKLEKAYIRDLINPSEYESECQKLIVHFKTLSATLKDTVPNIERFADTYKMDCPAALYRLVTSGLPATVEHRATVAASTSNSASIVAECVQNFITSMDSLKLNMVAVDQVYPLLSDLSASLNKLSILPPDFEGKTKMKEWLSRLSKMGAADELTEQQSRQLHFDLESSYNSFMAALPKAGN | soluble |
| MLLGYCGSGYYGMQYNPPHKTIEGEILTKLFDVGAISEENSLAPKKNSFMAAARTDKGVHAMLNLLSLKITLREDTVAKLNAALPPEIRVWGIQPVNKKFNARSACDSRWYQYLIPEFILIGPPRSSLLHRNVGGCYREDGSQEVWDTFLEQTRGRFSGDELCRLQDTAQKLSESDPLVQDYVGLLSGTLSGYCLSPSKLDAFEAAMQEYVGTHNFHNFTTGKLWGDPSAQRHIKKVVVSQASPGWICVRIHGQSFMLHQIRRMVALAVLAARCQLPPNIVRNYFNAGPRKYIPRAPAQGLLLEGPVFDGYNTKLRNLLYCEIRPDDITLERMCRFRERQICTAIAHEETQRHVFCHFVRQMNRLATPLI | not soluble |
| MDQALLDGGYRCYTGEKIDVYFNTAICQHSGNCVRGNGKLFNLKRKPWIMPDEVDVATVVKVIDTCPSGALKYRHK | soluble |
| MIDETAEEIREMRTHSSSVVAVKAARALEALLDSDYPTVAAYVRALERNSTALRRANPSHASLVTTQREVVSRVRDADPASIPEAQEVTAAAIDDVVARVNMGKHDAAAATAEHITDGQTLLTHDYSSTVLEAIELAAQDGAHLDVFVTEARPRHLGRKTVRALAQLDRVDPTLIVDGAAGHVLDDCDRVLLGMDCIVADTYYNRVGTYPIVAAAADAGTPVTVAGSAAKLVADGFQFTNDFRDTSEVIREPPAGFTVENPAYDATPTRLLDAVVTEDGRRTEFPLESLEHHHHHH | not soluble |
| MDPFGKYIKAVSARAADKEILKKAQDGGIVSAAYIYGLESGLLDGVIIADKEDGFAAAPKVATTREEILNAAGTKYTVCPNLSVVKSAVREYGCDKLGFVGTPCQVRSIRKAIKYPVGYRHVPDKIALIMGIFCMENFPYNGMKAIVEEHCGIKMDDVVKTDIGKGKFWVYSKWGDVKTIPLKDTHPYEQGSCHVCMDYTAELADISTGSVGSPDGWSTIFVRTAKGEEYLNKMVEAGALETKEIDAVKPGLGLVEKLALTKKEKNGKEVEHRKEIGLPVPYLEHHHHHH | not soluble |
| MAHHHHHHMGIYIFCLFPKGGRESKWGKPTITTKKVQGMPFPHPSHHHHHYHQKQQKTHHCHPRCTLVFLRQARAHKAITPPDVQRRTQRLNAQGKTTKKKSYDDGPPFFLFEKKKKRKAERHKEKGEKEGKGNVNTYRIVKEKEKVNKYLIYFYNNNNNYYYTYVCVYIHTTT | not soluble |
| GAMGDPGLVSAYGAGLEGGVTGNPAEFVVNTSNAGAGALSVTIDGPSKVKMDCQECPEGYRVTYTPMAPGSYLISIKYGGPYHIGGSPFKAKVTGPRLV | soluble |
| MKYVIGIDGGGSKTHMKISTLDYKVLLEVFKGPSNINSSTKEEVKRVLQELIMEGLGKLGQSLEECSAICIGTAGADRTEDKSIIEDMIRSLGYMGKIIVVNDAEIALAGGIEKREGIIVISGTGSICYGRNKEGRSARSGGWGHIIGDEGSGYDIGIKAIKAALKSFDKRGEKTILEGDILDFLKLKSHEDLINYIYRSGVTKKEIASLTRVVNSAYIKGDLVSKRILKEAARELFLSVKAVVEVLSMQNKKVVLTTAGGVINNINYLYDEFRKFLNLNYPKVKIISMKNDSAFGAVIIARSECDMAGDPLEHHHHHH | not soluble |
| MAHHHHHHMDIIKNETKEMDMYNPSVSINFEKGILKNSCDTPKDTKLEKLKREYNILTSSYDYNSGNKKERRNIWKEKVKHNIASKNKKKMVKIKKEENNNELENKKGENLLMYVNDKNSNLNVYIDENDLFEETPNISSNTLLSYISNIFLRKKNIYEIKKCDFIKEVNTDESLKRNFIPPVDILYDDKKVLFLFFISGNLQNFHVTSNNNYLTISGEKIPYQVQDHTSYFSHEIKKGYFIRTYCFMKTFDKEKIYYEQNNGVIKIYVYICDDNNI | not soluble |
| MDSGMVTPELKKAFAERGIDIIPVDVGTKMLVNELHPSHHDSTQVVIGSPIIPAPGNIDPQLRSYRIRRRMTVEANPFLLDHVIAGTPVLPATCGMSWMINACEECYPGYRYFRCQDFKILKGITFNDKVASEHILEIQEVAKHGSESIEFKTKVLSKTPEGKIHYHFSAHITIVRELPAAPVYESLDMTEDHTIGAIGKDFYQKGGLSLFHGISFQQITRVLNINSQKITVECCWAEIPLETQGQFPVKWHNPYATDLSTQPLWLWLSHVHQEVCLPGQITKSEQFRAIPRNKPFYVSCEIEHKTPSGVTADIILHDREGKIYFRIYQAKAIIAPMNLHLEHHHHHH | not soluble |
| MSLLKQKILNRESGIITYGITPPKKNNTEEKIKEISQKHIERISGLDIDGLVIYDLQDEKERVSEERPFPFIETIDPQIYSENYLKDLKIPKIIYRCVGKYTPDEFRRLTRPVSGQDAFSVFVGAASRNQSVLLKLSDAYKIRQDVNPDLLLGGVAIPERHMKNTDEHLRIIDKINKGCKYFITQAVYNVEAAKDFLSDYYYYSKNNNLKMVPIIFTLTPCGSTKTLEFMKWLGISIPRWLENDLMNCEDILNKSVSLSKSIFNELMEFCLEKGIPIGCNIESVSVRKVEIEASIALAKDIKYIMKGEGHHHHHH | soluble |
| MGSDKIHHHHHHMTNQNYLAKTTNKQYIVKFFGKGTEKLINRQDEKYNLELLKDLGLDVKNYLFDIEAGIKVNEYIESAITLDSTSIKTKFDKITPILQTIHTSAKELRGEFAPFEEIKKYESLIEEQIPYANYESVRNAVFSLEKRLADLGVDRKSCHIDLVPENFIESPQGRLYLIDWEYSSMNDPMWDLAALFLESEFTSQEEETFLSHYESDQTPVSHEKIAIYKILQDTIWSLWTVYKEEQGEDFGDYGVNRYQRAIKGLASYGGSDEK | not soluble |
| MAEHRSMQRAALLDAARSLLSDGGTEALTFPALAERTGLARSSVYEYFRSRAAVVEELCAVDFPVWAAEVEAAMERETAPDAKVEAYVRTQLDLVGDRRHRAVVAISASELDAGAREKIRAAHGGLIAMIVEALGEMGHGQPRLAAMLLQGVVDAAVRRIELGAAEEPGAITEAAVSMALRGVRG | not soluble |
| MNINRFVLAAPGSGSGKTTVAALLCLALRARGLSVQPFKLGPDYLDPTHLTRAAGRETRNLDSFLLAPERLQTLFARAAAQAEVCVIEGVMGLYDGRDPGSDEHSTAALARLLGARVVLVIDAGGMARTVAAVAAGLRDFGEGVNVAGVILNRVGSVRHAELCAEALTQVGLACLGFLLQDDALRLPSRHLGLLSAQQASWDEAAALAAARYLDLDALLNVTRAPDLSSSSSMSPPPSTRIAYAFDSAFHFYYPDALDELRSCGAELVPFSPLEDAGVPEDVGGLLLGGGYPEAHAAELAANERMRRSVRAFAASGRPVVGECGGLMYLSETLEDENGVTHEMCGVVPYRTRMARRLSLGYRDALSLADSPLLPAGTAIRGHEFHFSTLTHEPTHPAYRWRTHDGQEVAEGYARGNVLASYLHLHYGGFPAVAARLVERCQLEHHHHHH | not soluble |
